Numbered stars: 1 amine (or outer) side, 2 acyl side, 3 side chain; on linkers, the order of the positions; unused ones are H or OH. Square brackets hold non-standard residues; d marks the D form. Ends that are not written are not given here. * marks the point of attachment. O(CA) = ornithine chloroamidine, N=C(CCl)NCCC[C@H](N[*:1])C(=O)[*:2]; Orn(fluoroacetimidoyl) = N=C(CF)NCCC[C@H](N)C(=O)O; Moc = COC(=O)*
T1: papain (UniProt P00784 134-345)
T1 sequence (looked up): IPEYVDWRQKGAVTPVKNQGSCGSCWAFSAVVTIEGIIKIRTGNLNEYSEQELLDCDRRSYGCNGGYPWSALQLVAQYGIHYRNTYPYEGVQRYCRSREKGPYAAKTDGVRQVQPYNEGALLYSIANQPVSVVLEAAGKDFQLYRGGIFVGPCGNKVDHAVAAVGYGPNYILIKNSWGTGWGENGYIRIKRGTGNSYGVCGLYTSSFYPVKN


Tests used:
Assay in all cases: cell-based or functional assay
recombinant human PAD2 [1] = molecular target: T2, recombinant human PAD2 (human, UniProt Q9Y2J8 1-665)
recombinant human PAD4 [2] = molecular target: T3, recombinant human PAD4 (human, UniProt Q9UM07 1-663)
recombinant human PAD2 [3] = molecular target: T2, recombinant human PAD2; remark: listed apart in the source
recombinant human PAD4 [4] = molecular target: T3, recombinant human PAD4; remark: listed apart in the source
[5] = molecular target: human N(G),N(G)-dimethyl-L-arginine dimethylaminohydrolase isotype 1 (human, UniProt O94760 1-285)
caspase-3 = molecular target: caspase-3
creatine kinase = molecular target: creatine kinase
transglutaminase = molecular target: transglutaminase
papain = molecular target: T1, papain
recombinant human PAD2 [6] = molecular target: T2, recombinant human PAD2; remark: listed apart in the source
recombinant human PAD4 [7] = molecular target: T3, recombinant human PAD4; remark: listed apart in the source
recombinant human PAD2 [8] = molecular target: T2, recombinant human PAD2; remark: listed apart in the source
recombinant human PAD4 [9] = molecular target: T3, recombinant human PAD4; remark: listed apart in the source
recombinant human PAD2 [10] = molecular target: T2, recombinant human PAD2; remark: listed apart in the source
recombinant human PAD4 [11] = molecular target: T3, recombinant human PAD4; remark: listed apart in the source

T2 sequence (Q9Y2J8 whole entry): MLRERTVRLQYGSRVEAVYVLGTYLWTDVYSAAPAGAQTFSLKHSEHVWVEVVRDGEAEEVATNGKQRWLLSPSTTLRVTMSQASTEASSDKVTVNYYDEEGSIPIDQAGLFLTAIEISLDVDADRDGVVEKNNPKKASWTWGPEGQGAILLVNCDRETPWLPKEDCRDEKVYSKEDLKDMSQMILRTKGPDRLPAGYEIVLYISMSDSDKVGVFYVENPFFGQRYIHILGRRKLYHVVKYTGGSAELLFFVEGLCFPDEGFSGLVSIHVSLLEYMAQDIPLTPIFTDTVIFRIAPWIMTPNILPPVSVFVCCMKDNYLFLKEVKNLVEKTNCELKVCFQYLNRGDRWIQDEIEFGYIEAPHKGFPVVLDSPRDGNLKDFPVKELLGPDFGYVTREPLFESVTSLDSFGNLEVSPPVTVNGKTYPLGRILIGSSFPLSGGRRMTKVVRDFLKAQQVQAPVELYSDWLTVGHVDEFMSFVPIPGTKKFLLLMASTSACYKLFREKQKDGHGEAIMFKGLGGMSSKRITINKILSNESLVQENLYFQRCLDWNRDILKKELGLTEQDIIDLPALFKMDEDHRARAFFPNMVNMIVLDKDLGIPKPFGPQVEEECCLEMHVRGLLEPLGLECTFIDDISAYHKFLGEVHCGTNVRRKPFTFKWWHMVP
T3 sequence (Q9UM07 whole entry): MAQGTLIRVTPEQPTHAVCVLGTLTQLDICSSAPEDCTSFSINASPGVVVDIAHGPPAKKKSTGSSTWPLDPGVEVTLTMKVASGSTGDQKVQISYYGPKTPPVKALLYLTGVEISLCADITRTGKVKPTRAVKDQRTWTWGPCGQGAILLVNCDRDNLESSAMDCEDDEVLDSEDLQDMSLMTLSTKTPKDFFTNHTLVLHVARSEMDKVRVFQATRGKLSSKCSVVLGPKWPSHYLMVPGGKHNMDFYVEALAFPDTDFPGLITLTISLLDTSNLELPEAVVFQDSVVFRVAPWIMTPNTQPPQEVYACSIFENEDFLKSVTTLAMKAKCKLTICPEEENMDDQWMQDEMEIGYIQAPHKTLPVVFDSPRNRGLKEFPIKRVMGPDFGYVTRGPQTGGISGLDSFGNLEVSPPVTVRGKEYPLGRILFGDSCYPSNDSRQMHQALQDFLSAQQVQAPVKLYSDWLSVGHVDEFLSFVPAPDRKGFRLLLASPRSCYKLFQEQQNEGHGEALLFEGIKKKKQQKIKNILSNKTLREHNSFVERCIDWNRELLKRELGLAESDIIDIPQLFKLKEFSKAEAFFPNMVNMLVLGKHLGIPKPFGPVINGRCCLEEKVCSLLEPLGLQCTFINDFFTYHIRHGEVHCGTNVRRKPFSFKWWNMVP
Chain of human N(G),N(G)-dimethyl-L-arginine dimethylaminohydrolase isotype 1 (O94760 whole entry): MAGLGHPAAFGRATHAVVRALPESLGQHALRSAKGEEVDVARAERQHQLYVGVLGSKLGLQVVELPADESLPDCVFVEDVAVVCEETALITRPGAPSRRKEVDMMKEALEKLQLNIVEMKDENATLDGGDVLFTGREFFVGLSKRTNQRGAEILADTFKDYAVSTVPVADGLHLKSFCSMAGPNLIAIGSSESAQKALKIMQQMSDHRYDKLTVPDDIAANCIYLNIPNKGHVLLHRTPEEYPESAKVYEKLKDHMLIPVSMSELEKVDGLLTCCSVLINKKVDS

| Binder | conversion of 0708-30 by PAD2, 10 µM inhibitor (0 µM: 68) (recombinant human PAD2 [1]) | conversion of 0708-30 by PAD2, 50 µM inhibitor (0 µM: 68) (recombinant human PAD2 [1]) | conversion of 0708-30 by PAD2, 100 µM inhibitor (0 µM: 68) (recombinant human PAD2 [1]) | conversion of 0708-30 by PAD4, 10 µM inhibitor (0 µM: 81) (recombinant human PAD4 [2]) | conversion of 0708-30 by PAD4, 50 µM inhibitor (0 µM: 81) (recombinant human PAD4 [2]) | conversion of 0708-30 by PAD4, 100 µM inhibitor (0 µM: 81) (recombinant human PAD4 [2]) | IC50 values (µM), colorimetric assay (recombinant human PAD2 [3]) | IC50 values (µM), colorimetric assay (recombinant human PAD4 [4]) | IC50 values (µM), hDDAH-1 activity assay [5] | IC50 values (µM), caspase-3 activity assay (caspase-3) | IC50 values (µM), creatine kinase activity assay (creatine kinase) | IC50 values (µM), transglutaminase activity assay (transglutaminase) | IC50 values (µM), papain activity assay (papain) | further results |
| --- | --- | --- | --- | --- | --- | --- | --- | --- | --- | --- | --- | --- | --- | --- |
| Ac-KFD[Orn(fluoroacetimidoyl)]DFI-NH2 (SMILES CC[C@H](C)[C@H](NC(=O)[C@H](Cc1ccccc1)NC(=O)[C@H](CC(=O)O)NC(=O)[C@H](CCCNC(=N)CF)NC(=O)[C@H](CC(=O)O)NC(=O)[C@H](Cc1ccccc1)NC(=O)[C@H](CCCCN)NC(C)=O)C(N)=O) [0743-58FA] | 33% | 8% | 4% | 38% | 19% | 10% | 35 µM | 6 µM | > 2000 µM | 920 µM | 800 µM | 1000 µM | > 2000 µM | Inhibition of PAD2: value at 10 µM inhibitor (0 µM: 74) (recombinant human PAD2 [6]): 39%; Inhibition of PAD2: value at 20 µM inhibitor (0 µM: 74) (recombinant human PAD2 [6]): 26%; Inhibition of PAD2: value at 40 µM inhibitor (0 µM: 74) (recombinant human PAD2 [6]): 15%; Inhibition of PAD2: value at 80 µM inhibitor (0 µM: 74) (recombinant human PAD2 [6]): 9%; Inhibition of PAD4: value at 10 µM inhibitor (0 µM: 71) (recombinant human PAD4 [7]): 46%; Inhibition of PAD4: value at 20 µM inhibitor (0 µM: 71) (recombinant human PAD4 [7]): 36%; Inhibition of PAD4: value at 40 µM inhibitor (0 µM: 71) (recombinant human PAD4 [7]): 18%; Inhibition of PAD4: value at 80 µM inhibitor (0 µM: 71) (recombinant human PAD4 [7]): 13% |
| Ac-GD[O(CA)]GS [CXP5.2-078] |  |  |  |  |  |  | > 500 µM | 18 µM | 1200 µM | 1000 µM | 780 µM | 730 µM | 1050 µM |  |
| TD[Orn(fluoroacetimidoyl)]GS [T-D-O(FA)-G-S] |  |  |  |  |  |  |  |  |  |  |  |  |  | IC50 values (µM), ABAP PAD activity assay (recombinant human PAD2 [8]): 19 µM; IC50 values (µM), ABAP PAD activity assay (recombinant human PAD4 [9]): 58 µM; IC50 values (µM), ABAP PAD activity assay, second round (recombinant human PAD2 [10]): 49 µM; IC50 values (µM), ABAP PAD activity assay, second round (recombinant human PAD4 [11]): 129 µM |
| Ac-YD[O(CA)]GS [CXP5.2-081] |  |  |  |  |  |  | 200 µM | 10 µM | 1330 µM | > 1000 µM | 1000 µM | > 1000 µM | > 2000 µM |  |
| Moc-TD[Orn(fluoroacetimidoyl)]GS-OMe (SMILES COC(=O)N[C@H](C(=O)N[C@@H](CC(=O)O)C(=O)N[C@@H](CCCNC(=N)CF)C(=O)NCC(=O)N[C@@H](CO)C(=O)OC)[C@@H](C)O) [CXP5-101] |  |  |  |  |  |  | 35 µM | 10 µM | > 2000 µM | > 1000 µM | 780 µM | 600 µM | > 2000 µM |  |
| Ac-KWH[Orn(fluoroacetimidoyl)]DFF-NH2 (SMILES CC(=O)N[C@@H](CCCCN)C(=O)N[C@@H](Cc1c[nH]c2ccccc12)C(=O)N[C@@H](Cc1c[nH]cn1)C(=O)N[C@@H](CCCNC(=N)CF)C(=O)N[C@@H](CC(=O)O)C(=O)N[C@@H](Cc1ccccc1)C(=O)N[C@@H](Cc1ccccc1)C(N)=O) [0748-09FA] | 23% | 6% | 5% | 51% | 22% | 13% |  |  |  | > 1000 µM | 1000 µM | > 1000 µM | > 2000 µM | Inhibition of PAD2: value at 10 µM inhibitor (0 µM: 76) (recombinant human PAD2 [6]): 25%; Inhibition of PAD2: value at 20 µM inhibitor (0 µM: 76) (recombinant human PAD2 [6]): 14%; Inhibition of PAD2: value at 40 µM inhibitor (0 µM: 76) (recombinant human PAD2 [6]): 8%; Inhibition of PAD2: value at 80 µM inhibitor (0 µM: 76) (recombinant human PAD2 [6]): 4%; Inhibition of PAD4: value at 10 µM inhibitor (0 µM: 67) (recombinant human PAD4 [7]): 51%; Inhibition of PAD4: value at 20 µM inhibitor (0 µM: 67) (recombinant human PAD4 [7]): 38%; Inhibition of PAD4: value at 40 µM inhibitor (0 µM: 67) (recombinant human PAD4 [7]): 27%; Inhibition of PAD4: value at 80 µM inhibitor (0 µM: 67) (recombinant human PAD4 [7]): 18% |

From patent publication US20110142868A1 (CHIRALIX B V, published 2011)
